This assay has as its target T1, TMF/ARA160 (endogenous protein of C2C12, NIH3T3 and T127 cells) (UniProt B9EKI3 1-1091).
T1 construct: Endogenous protein, immunoprecipitated from whole cell extracts or stained in fixed cells; also called Gate-Keeper; GK
T1 sequence (looked up): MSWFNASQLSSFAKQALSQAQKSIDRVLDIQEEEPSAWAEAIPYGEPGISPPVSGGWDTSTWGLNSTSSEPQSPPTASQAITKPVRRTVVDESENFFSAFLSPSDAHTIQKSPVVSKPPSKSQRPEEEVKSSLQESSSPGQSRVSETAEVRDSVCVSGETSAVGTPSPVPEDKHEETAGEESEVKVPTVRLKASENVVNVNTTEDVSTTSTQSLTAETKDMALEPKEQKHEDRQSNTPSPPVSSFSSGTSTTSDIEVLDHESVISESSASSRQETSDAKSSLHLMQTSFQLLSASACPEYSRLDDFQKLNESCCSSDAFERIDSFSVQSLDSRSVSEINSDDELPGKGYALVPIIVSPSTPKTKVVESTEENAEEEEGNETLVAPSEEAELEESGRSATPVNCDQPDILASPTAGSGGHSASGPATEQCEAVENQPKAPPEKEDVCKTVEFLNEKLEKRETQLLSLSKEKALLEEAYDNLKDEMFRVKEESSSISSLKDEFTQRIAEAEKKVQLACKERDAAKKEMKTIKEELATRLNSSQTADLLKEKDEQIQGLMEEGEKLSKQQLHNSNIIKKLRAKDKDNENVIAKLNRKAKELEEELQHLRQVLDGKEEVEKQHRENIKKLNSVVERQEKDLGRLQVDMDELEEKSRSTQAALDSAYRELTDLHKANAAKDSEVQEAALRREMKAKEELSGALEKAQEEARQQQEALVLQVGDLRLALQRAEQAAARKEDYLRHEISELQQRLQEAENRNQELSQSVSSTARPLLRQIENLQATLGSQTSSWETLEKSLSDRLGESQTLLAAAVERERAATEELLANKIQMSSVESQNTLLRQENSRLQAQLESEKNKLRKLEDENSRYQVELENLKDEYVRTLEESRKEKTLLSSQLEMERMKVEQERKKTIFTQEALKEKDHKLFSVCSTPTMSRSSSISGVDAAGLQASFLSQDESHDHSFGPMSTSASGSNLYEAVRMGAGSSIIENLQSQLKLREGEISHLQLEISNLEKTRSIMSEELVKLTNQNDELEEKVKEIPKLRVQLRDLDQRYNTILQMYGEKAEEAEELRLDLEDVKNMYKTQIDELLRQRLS
In words: co-immunoprecipitation with αTMF/ARA160 from C2C12 extracts, Western blot with αStat1. The text has this: FIG. 6 is an immunoprecipitation showing that TMF/ARA160 associates with cyclin D1 and Stat3 but not with Stat1, in serum starved C2C12 cells. […] Whole cell extracts from actively growing (lanes 1 and 5) or serum-starved cells (lanes 2-4 and 6-8) which were either untreated (lanes 1-4) or treated with MG132 (lanes 5-8), were resolved by 7% SDS-PAGE and exposed to αStat3 (upper panel); αcyclin D1 (middle panel); or αStat1 antibodies (lower panel), in a Western-blot analysis. […] TMF/ARA160 was immunoprecipitated from the extracts described in A. Precipitates were resolved by 7% SDS-PAGE and were reacted with αStat3 (upper panel); αStat1 (middle panel); or αcyclin D1 antibodies (lower panel), in a Western-blot analysis.
(A western blot detects proteins with antibodies after separation by electrophoresis.)

B1: Stat1 (endogenous protein of C2C12 cells) (other, UniProt P42225 2-749, looked up)
chain: SQWFELQQLDSKFLEQVHQLYDDSFPMEIRQYLAQWLEKQDWEHAAYDVSFATIRFHDLLSQLDDQYSRFSLENNFLLQHNIRKSKRNLQDNFQEDPVQMSMIIYNCLKEERKILENAQRFNQAQEGNIQNTVMLDKQKELDSKVRNVKDQVMCIEQEIKTLEELQDEYDFKCKTSQNREGEANGVAKSDQKQEQLLLHKMFLMLDNKRKEIIHKIRELLNSIELTQNTLINDELVEWKRRQQSACIGGPPNACLDQLQTWFTIVAETLQQIRQQLKKLEELEQKFTYEPDPITKNKQVLSDRTFLLFQQLIQSSFVVERQPCMPTHPQRPLVLKTGVQFTVKSRLLVKLQESNLLTKVKCHFDKDVNEKNTVKGFRKFNILGTHTKVMNMEESTNGSLAAELRHLQLKEQKNAGNRTNEGPLIVTEELHSLSFETQLCQPGLVIDLETTSLPVVVISNVSQLPSGWASILWYNMLVTEPRNLSFFLNPPCAWWSQLSEVLSWQFSSVTKRGLNADQLSMLGEKLLGPNAGPDGLIPWTRFCKENINDKNFSFWPWIDTILELIKNDLLCLWNDGCIMGFISKERERALLKDQQPGTFLLRFSESSREGAITFTWVERSQNGGEPDFHAVEPYTKKELSAVTFPDIIRNYKVMAAENIPENPLKYLYPNIDKDHAFGKYYSRPKEAPEPMELDDPKRTGYIKTELISVSEVHPSRLQTTDNLLPMSPEEFDEMSRIVGPEFDSMMSTV
Take B1: the binding result is on record as “no binding”.

The record behind these values is patent publication US20050063973A1 (URIFER, published 2005).
